In data set [1] the target is T1, PorX-C-His6 (Porphyromonas gingivalis (33277?)) (UniProt B2RJJ3).
T1 sequence: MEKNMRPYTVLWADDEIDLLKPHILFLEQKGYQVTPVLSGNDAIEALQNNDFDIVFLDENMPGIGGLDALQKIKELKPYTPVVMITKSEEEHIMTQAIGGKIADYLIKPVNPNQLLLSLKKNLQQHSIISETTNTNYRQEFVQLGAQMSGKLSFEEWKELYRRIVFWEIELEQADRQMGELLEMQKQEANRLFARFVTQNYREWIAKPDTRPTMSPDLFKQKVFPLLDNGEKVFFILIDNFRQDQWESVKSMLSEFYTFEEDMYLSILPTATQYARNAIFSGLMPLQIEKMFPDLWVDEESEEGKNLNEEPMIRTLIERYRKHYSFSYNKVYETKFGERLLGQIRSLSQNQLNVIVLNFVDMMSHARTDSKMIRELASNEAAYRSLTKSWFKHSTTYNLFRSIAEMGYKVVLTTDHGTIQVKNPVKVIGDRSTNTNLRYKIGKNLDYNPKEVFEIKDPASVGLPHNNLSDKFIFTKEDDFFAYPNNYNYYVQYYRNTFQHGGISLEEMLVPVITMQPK
The data set can be described thus: DNase I footprinting. Conditions: EMSA: 10 mM Tris-HCl pH 7.5, 1 mM EDTA, 5 mM DTT, 10 mM NaCl, 1 mM MgCl2, 5% glycerol, room temperature, 30 min. In general terms: Mobility shift assays separate free from complexed probe on a gel.

Data set [2] has as its target T1, PorX-C-His6 (Porphyromonas gingivalis (33277?)). The data set can be described thus: EMSA. As to conditions: EMSA: 10 mM Tris-HCl pH 7.5, 1 mM EDTA, 5 mM DTT, 10 mM NaCl, 1 mM MgCl2, 5% glycerol, room temperature, 30 min.

For “CCGAGTACGTTTACCCCGGCCCGATACAGTTCTTCGGCCCCGAACATGTATGCGATAGCCCCACGATGACACTCCGCTTGGAAAAGAACGATCGCTGACTCTTCCGCTGCATTAGTCGGGTTGATAAGCAGTTGCTTCTGTTTGTTTTGTCGAAAAAAATGTTTTTCTTTGCAATAAGTCTCATTTAAAAGAATCGCCTATCGACGCATATCTACCTTCTGAACAATAAATAAAGAGGATTCTCCTATGAGCAGTTTCCACAAGCTGACTGATGA (double strand) [T1 sigP promoter fragment (275 bp)]”, the binding entry in data set [1] and in data set [2] was “binds” throughout.

The record behind these values is PMC8265659.
